Test results taken from patent US20160280796A1 (Memorial Sloan Kettering, published 2016).

How the values were obtained:
[1] = molecular target: T1, MHC1/WT1 peptide complex (soluble, biotinylated MHC-WT1 loaded on streptavidin biosensor) (human); assay: ForteBio Octet QK, biotinylated MHC-WT1 on streptavidin biosensor, antibody at 20 µg/ml, 1:1 model
T1 construct: also called WT1/HLA-A2 complex

[2] = molecular target: T1, MHC1/WT1 peptide complex (soluble, …); assay: ForteBio Octet QK, biotinylated MHC-WT1 on streptavidin biosensor, antibody at 10 µg/ml, 1:1 model

B1: ESK1-OKT3 (bi-specific), full length bi-specific antibody made from ESK1 and anti-CD3 OKT3 by 2-MEA reduction and re-oxidation (bispecific antibody)
heavy 1: not shown
light 1: not shown
heavy 2: not shown
light 2: DIQMTQSPSSLSASVGDRVTITCSASSSVSYMNWYQQTPGKAPKRWIYDTSKLASGVPSRFSGSGSGTDYTFTISSLQPEDIATYYCQQWSSNPFTFGQGTKLQITRTVAAPSVFIFPPSDEQLKSGTASVVCLLNNFYPREAKVQWKVDNALQSGNSQESVTEQDSKDSTYSLSSTLTLSKADYEKHKVYACEVTHQGLSSPVTKSFNRGEC
notes: also called ESK1/OKT3 bi-specific monoclonal antibody
[1]
  Kd: 92.2 nM
  koff: 0.0033 s⁻¹
  kon: 35800 M⁻¹ s⁻¹

B2: ESK1 (full-length antibody, parent of the ESK1-OKT3 bi-specific) (antibody, V domains shown)
VH: QMQLVQSGAEVKEPGESLRISCKGSGYSFTNFWISWVRQMPGKGLEWMGRVDPGYSYSTYSPSFQGHVTISADKSTSTAYLQWNSLKASDTAMYYCARVQYSGYYDWFDPWGQGTLVTVSS
VL: not shown
notes: also called ESK1 mAb
[2]
  Kd: 9.12 nM
  koff: 0.00499 s⁻¹
  kon: 547000 M⁻¹ s⁻¹
